Laboratory results reported in paper PMC8763658.

Target: MUC1 mucin (tumor‐associated MUC1) on human cancer cells (human (endogenous in T47D, A549, MCF-7)) (UniProt P15941)
Chain of UniProt P15941 (P15941 24-1255, stated change not applied): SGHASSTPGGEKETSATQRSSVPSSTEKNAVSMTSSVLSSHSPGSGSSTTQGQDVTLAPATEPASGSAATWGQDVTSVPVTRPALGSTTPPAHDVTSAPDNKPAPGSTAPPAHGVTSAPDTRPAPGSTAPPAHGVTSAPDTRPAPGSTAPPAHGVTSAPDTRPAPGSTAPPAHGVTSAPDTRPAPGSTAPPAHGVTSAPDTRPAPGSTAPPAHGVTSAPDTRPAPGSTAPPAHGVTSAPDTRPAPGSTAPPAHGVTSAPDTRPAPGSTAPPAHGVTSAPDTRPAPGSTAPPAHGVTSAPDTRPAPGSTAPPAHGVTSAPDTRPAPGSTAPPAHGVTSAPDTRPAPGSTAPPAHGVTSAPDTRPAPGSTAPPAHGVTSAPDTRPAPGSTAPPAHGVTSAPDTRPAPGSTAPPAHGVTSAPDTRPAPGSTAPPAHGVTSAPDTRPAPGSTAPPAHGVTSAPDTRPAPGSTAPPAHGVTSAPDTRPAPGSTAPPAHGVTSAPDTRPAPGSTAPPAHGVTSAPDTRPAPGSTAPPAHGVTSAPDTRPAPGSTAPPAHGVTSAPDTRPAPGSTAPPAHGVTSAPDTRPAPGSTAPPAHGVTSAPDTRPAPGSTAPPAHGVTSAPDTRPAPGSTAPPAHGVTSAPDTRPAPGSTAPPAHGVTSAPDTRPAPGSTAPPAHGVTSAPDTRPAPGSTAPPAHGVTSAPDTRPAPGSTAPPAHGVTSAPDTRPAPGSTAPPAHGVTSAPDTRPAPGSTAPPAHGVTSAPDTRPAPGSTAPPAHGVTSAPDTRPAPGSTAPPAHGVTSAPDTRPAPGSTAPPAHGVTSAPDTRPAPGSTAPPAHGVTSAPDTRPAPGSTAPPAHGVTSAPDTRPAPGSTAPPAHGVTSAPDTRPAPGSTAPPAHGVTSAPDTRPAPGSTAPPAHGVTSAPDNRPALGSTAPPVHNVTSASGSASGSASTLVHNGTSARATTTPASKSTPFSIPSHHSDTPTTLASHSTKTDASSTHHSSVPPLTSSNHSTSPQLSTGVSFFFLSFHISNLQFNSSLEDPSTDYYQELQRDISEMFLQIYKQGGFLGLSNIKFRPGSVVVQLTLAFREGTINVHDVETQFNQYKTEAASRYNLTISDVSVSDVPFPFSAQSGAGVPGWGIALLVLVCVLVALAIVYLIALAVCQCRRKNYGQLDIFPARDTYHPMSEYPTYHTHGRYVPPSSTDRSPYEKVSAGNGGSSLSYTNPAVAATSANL

B1: recombinant anti‐MUC1 nanobody (VHH)
VHH: EVQLVESGGGLVQPGGSLRLSCAASGFTFDDYGMSWVRQAPGKWLEWVSDISWNGGSTYYADSVKGRFTISRDNAENTLYLQMNSLKPDDTAVYYCAKMGEGGWGANDYWGQGTQVTVSS
In the case of B1, the MTT viability assay, A549 cells, 48 h, IC50 of growth inhibition is reported as 14.3 nM, the MTT viability assay, MCF7 cells, 48 h, IC50 of growth inhibition is reported as 7 nM and the MTT viability assay, MDA‐MB‐231 cells, 48 h, IC50 of growth inhibition is reported as 10 nM. The MTT viability assay, SKBR3 cells, IC50 of growth inhibition was 4.16 nM, the MTT viability assay, SW742 cells, 48 h, IC50 of growth inhibition was 7.2 nM and the MTT viability assay, T47D cells, 48 h, IC50 of growth inhibition was 1.2 nM.
